Experiment [1] addresses mouse NPM1 reintroduced into NPM1-/- HUH7 cells (mouse) (UniProt Q61937). Description: native gel or EMSA; native PAGE of lysates of NPM1-/- HUH7 cells with reintroduced human or mouse NPM1; control and LETN knockdown.
For experiment [2], the target named is purified mouse NPM1 mutant mNPM1-214S/217S (mouse) (UniProt Q61937). Description: native gel or EMSA; in vitro NPM1 oligomerization assay: purified NPM1 sonicated in binding buffer (50 mM Tris pH 7.4, 150 mM NaCl, 0.5% NP-40), incubated at RT with the in vitro transcribed first ~2000 nt of LETN, 10% native PAGE, anti-NPM1 blot. On the technique in general: Mobility shift assays separate free from complexed probe on a gel.

In experiment [3] the target is purified mouse NPM1 protein (mouse) (UniProt Q61937). Description: native gel or EMSA; in vitro NPM1 oligomerization assay as a5 but without functional LETN (no RNA, scrambled RNA of similar length, or LETN lacking the three NPM1-binding fragments).

In the case of “mouse NPM1 reintroduced into NPM1-/- HUH7 cells (from UniProt Q61937 1-292) (natural protein)”, the stoichiometry N in experiment [1] turned out to be 5.

On to “purified mouse NPM1 mutant mNPM1-214S/217S (from UniProt Q61937 1-292) (natural protein)”, for which the stoichiometry N in experiment [2] was 5.

The substance “purified mouse NPM1 protein (from UniProt Q61937 1-292) (natural protein)” came in with a stoichiometry N in experiment [3] of 5.

By stoichiometry N is commonly meant the number of molecules, sites or subunits per partner or assembly.

These data come from article PMC8169757.
